Assay [1] addresses T1, collagenase (MMP-1, human rheumatoid synovial fibroblast) (Homo sapiens, UniProt P03956).
T1 construct: collagenase (MMP-1, human rheumatoid synovial fibroblast); endogenous in cells; host or cells: human rheumatoid synovial fibroblast
T1 sequence (P03956 100-469): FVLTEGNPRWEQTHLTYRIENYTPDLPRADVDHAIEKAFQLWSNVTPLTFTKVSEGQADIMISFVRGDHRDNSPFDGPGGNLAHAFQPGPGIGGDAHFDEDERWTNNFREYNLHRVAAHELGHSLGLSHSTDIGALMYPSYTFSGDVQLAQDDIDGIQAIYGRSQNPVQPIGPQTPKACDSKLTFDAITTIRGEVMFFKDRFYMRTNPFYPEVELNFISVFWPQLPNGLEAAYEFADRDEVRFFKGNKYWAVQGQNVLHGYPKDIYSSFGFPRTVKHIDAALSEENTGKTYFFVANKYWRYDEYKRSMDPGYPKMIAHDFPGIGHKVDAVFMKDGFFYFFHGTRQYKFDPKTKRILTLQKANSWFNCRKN
Put plainly: Test Example 2: collagenase inhibition, peak area of Dnp-Pro-Leu-Gly from decomposition of Dnp-Pro-Leu-Gly-Ile-Ala-Gly-Arg-NH2. Format: biochemical. Conditions: 0.025 mg polypeptide, 200 ng collagenase, 37° C. for one hour. The method, then: Each of the polypeptides (0.025 mg) obtained in the Examples 1 to 6 and Comparative Examples 1 and 2 was dissolved in 0.05 mL of a 50 mM Tris/HCl buffer (pH=7.5) containing 50 mM NaCl and 10 mM CaCl2. Further, to each of the solutions was added 200 ng of collagenase (MMP-1, human rheumatoid synovial fibroblast) which was dissolved in 0.05 mL of a 50 mM Tris/HCl buffer (pH=7.5) containing 50 mM NaCl and 10 mM CaCl2, and was added 0.01 mL of 1 mM DMSO solution of Dnp-Pro-Leu-Gly-Ile-Ala-Gly-Arg-NH2 (manufactured by Peptide Institute, Inc., Dnp represents 2,4-dinitrophenyl group). The resulting mixture was allowed to stand at 37° C. for one hour. Then, 0.2 mL of acetonitrile was added to the mixture, and the resultant was centrifuged at 10,000 rpm for 10 minutes.
Incidentally, as a control, a peak area of the peptide Dnp-Pro-Leu-Gly without addition of any polypeptide was measured. The peak area of the control was considered as 100, and the peak area detected by addition of each of the polypeptides obtained in Examples and Comparative Examples was calculated as a relative value to the control.

In assay [2] the target is polypeptide of Example 2 (polycondensate of H-(Pro-Hyp-Gly)4-Pro-Gln-Gly-Ile-Ala-Gly-(Pro-Hyp-Gly)4-OH) (Artificial Sequence).
Assay [3] addresses polypeptide of Comparative Example 1 (polycondensate of H-(Pro-Hyp-Gly)10-OH) (Artificial Sequence).
Assay [4] addresses polypeptide of Example 3 (co-polycondensate of H-(Pro-Hyp-Gly)10-OH and H-(Pro-Hyp-Gly)4-Pro-Gln-Gly-Ile-Ala-Gly-(Pro-Hyp-Gly)4-OH, equimolar) (Artificial Sequence).
Assay [5] deals with collagenase (MMP-1, human rheumatoid synovial fibroblast) (human) (UniProt P03956).

For “H-(Pro-Hyp-Gly)10-OH [Comparative Example 2]”, in assay [1], the “inhibition of the collagenase activity” value is recorded as “the inhibition of the collagenase activity was not recognized”. Moreover, in assay [1] (pH 7.5), the “relative value of the detected peak area of Dnp-Pro-Leu-Gly (control without polypeptide = 100)” value is recorded as 96.

With “collagenase (MMP-1, human rheumatoid synovial fibroblast) (from UniProt P03956) (enzyme)”, the change in the molecular weight peak by gel-permeation chromatography after 24 hours at 37 C with collagenase (molecular weight) in assay [2] turned out to be 540000; in assay [3] it was 540000; in assay [4] it was 400000.

On to “peptide of Comparative Example 2, H-(Pro-Hyp-Gly)10-OH”, for which the relative value of the peak area of Dnp-Pro-Leu-Gly (control without polypeptide = 100) (relative to control = 100) in assay [5] worked out at 96.

For the substance “polypeptide of Comparative Example 1 (polycondensate of H-(Pro-Hyp-Gly)10-OH)”, the relative value of the peak area of Dnp-Pro-Leu-Gly (control without polypeptide = 100) (relative to control = 100) in assay [5] worked out at 97.

In assay [5], “polypeptide of Example 1, H-(Pro-Hyp-Gly)4-Pro-Gln-Gly-Ile-Ala-Gly-(Pro-Hyp-Gly)4-OH” showed a relative value of the peak area of Dnp-Pro-Leu-Gly (control without polypeptide = 100) (relative to control = 100) of 5.

As to “polypeptide of Example 2 (polycondensate of H-(Pro-Hyp-Gly)4-Pro-Gln-Gly-Ile-Ala-Gly-(Pro-Hyp-Gly)4-OH)”, the relative value of the peak area of Dnp-Pro-Leu-Gly (control without polypeptide = 100) (relative to control = 100) in assay [5] turned out to be 3.

In turn, “polypeptide of Example 3 (co-polycondensate of H-(Pro-Hyp-Gly)10-OH and H-(Pro-Hyp-Gly)4-Pro-Gln-Gly-Ile-Ala-Gly-(Pro-Hyp-Gly)4-OH, equimolar)” registered a relative value of the peak area of Dnp-Pro-Leu-Gly (control without polypeptide = 100) (relative to control = 100) in assay [5] of 12.

On to “polypeptide of Example 4 (co-polycondensate of H-(Pro-Hyp-Gly)10-OH and H-(Pro-Hyp-Gly)4-Pro-Gln-Gly-Ile-Ala-Gly-(Pro-Hyp-Gly)4-OH, 0.00081 mmol to 0.00009 mmol)”, for which, in assay [5], the relative value of the peak area of Dnp-Pro-Leu-Gly (control without polypeptide = 100) (relative to control = 100) is 22.

In assay [5], “polypeptide of Example 5, H-(Pro-Hyp-Gly)4-Pro-Leu-Gly-Ile-Ala-Gly-(Pro-Hyp-Gly)4-OH” returned a relative value of the peak area of Dnp-Pro-Leu-Gly (control without polypeptide = 100) (relative to control = 100) of 4.

Consider “polypeptide of Example 6 (polycondensate of H-(Pro-Hyp-Gly)4-Pro-Leu-Gly-Ile-Ala-Gly-(Pro-Hyp-Gly)4-OH)”, for which the relative value of the peak area of Dnp-Pro-Leu-Gly (control without polypeptide = 100) (relative to control = 100) in assay [5] was 2.

(Values after US20070207955A1, “Novel polypeptide and process for producing the same, and collagenase inhibitor” (priority 2006, published 2007).)
